Experimental data as given in publication PMC6365528.

What was measured:
[1] = substrate: CC1=CC[C@H]2C[C@@H]1C2(C)C; assay: cells, lysate or membranes; conditions: Sf9 microsomes + MPB CPR, 1 mM NADPH, 50 mM potassium phosphate pH 7.4, 30 °C, 1 h
[2] = substrate: CC1=CC[C@@H]2C[C@H]1C2(C)C; assay: cells, lysate or membranes; conditions: Sf9 microsomes + MPB CPR, 1 mM NADPH, 50 mM potassium phosphate pH 7.4, 30 °C, 1 h

B1: CYP6DE1 (Dendroctonus ponderosae) (protein)
chain: MALIIAVGLLLSIILLYCVYSKWKFQHWTRKGVPQLNPRLFFGDTLPLVRGQALKDFHLGLYQKFKSTGAKCVGIYNAHMPELVPIDIILLKDIMVKDYSYFSSHGVFYHEKNVLTSHLFNIEGQSWKERRTKLTPVFTSAKMKQMFDTVASKSPGLVRLVGLSADANKPADIKEILSRFTTDVISGAAFGLECKSLYEPDNMFRAIGKEAFEPNALKLYIEYLFPRQLLGSIGYQTFSSRIVSYFSKVVNETIQYREKNNVQRNDFMQLMLQLKQHGSLVKEDGSVDVKKTETQITDREILSESFLMFLAGHETSSSTSTFALFALSQNQDIQEKVRNEINEVLERHNGKLGYDALMEMEYLDKVIRETLRKYPTVPVIPRRCTKDYQIKNTNTVIDKGTRLYIPVIGVHLDPEYYPDPERFDPERFSPENKAKRPDIAWMPFGEGPRQCLGMRFGLLQSKVALASLLPTFRFTINKAMKPPYIADAGTLVYMFKQDVLLDATRIN
[1]
  Km: 160 ± 1 µM
  Vmax: 0.96 µM/min
  kcat: 0.37 s⁻¹
  kcat/Km: 2320 M⁻¹ s⁻¹
[2]
  Km: 292 ± 1 µM
  Vmax: 0.42 µM/min
  kcat: 0.17 s⁻¹
  kcat/Km: 576 M⁻¹ s⁻¹
